Assay [1] addresses T1, CADM1 peptide expressed on SBC-5 small cell lung cancer cells (CADM1-SBC-5); peptide - transmembrane domain - … (human).
T1 construct: also called CADM1 펩타이드를 발현하는 SBC-5 세포
T1 sequence (Q9BY67 whole entry, looked up): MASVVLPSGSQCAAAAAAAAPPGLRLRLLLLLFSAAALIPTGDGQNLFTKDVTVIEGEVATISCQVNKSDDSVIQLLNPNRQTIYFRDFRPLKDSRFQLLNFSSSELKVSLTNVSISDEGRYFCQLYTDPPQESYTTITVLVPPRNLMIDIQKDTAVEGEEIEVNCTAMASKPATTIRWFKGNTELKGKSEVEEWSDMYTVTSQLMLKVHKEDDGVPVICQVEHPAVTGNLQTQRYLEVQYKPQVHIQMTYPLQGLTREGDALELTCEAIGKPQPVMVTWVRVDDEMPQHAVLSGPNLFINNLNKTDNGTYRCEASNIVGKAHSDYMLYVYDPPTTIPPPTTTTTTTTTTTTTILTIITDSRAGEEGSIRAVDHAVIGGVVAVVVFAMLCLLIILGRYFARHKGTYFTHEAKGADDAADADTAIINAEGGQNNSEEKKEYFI
The assay is described as follows: flow cytometry, 1 ug scFv on 5x10^5 SBC-5 cells expressing the CADM1 peptide, PE anti-HA. Background: Flow cytometry measures light scatter and fluorescence of single cells or particles in a stream.

The target in assay [2] is T2, BSA-conjugated mouse CADM1 peptide (mouse, also: conjugated to BSA via added C-terminal Cys).
T2 construct: also called mouse peptide
T2 peptide: DSRAGEEGTIGAVDHC(BSA)
The assay is described as follows: ELISA, scFv titrated on coated BSA-conjugated mouse CADM1 peptide, anti-HA-HRP, OD450. (In general: In an ELISA, binding on a coated surface is turned into a signal by an enzyme label.)

For assay [3], the target named is T3, BSA-conjugated human CADM1 peptide (human, also: conjugated to BSA via added C-terminal Cys).
T3 construct: also called human peptide; rhCADM1 peptide
T3 peptide: DSRAGEEGSIRAVDHC(BSA)
The assay is described as follows: ELISA, scFv titrated on coated BSA-conjugated human CADM1 peptide, anti-HA-HRP, OD450.

Assay [4] concerns the target T2, BSA-conjugated mouse CADM1 peptide. Nature of the assay: ELISA, scFv titrated on coated BSA-conjugated mouse CADM1 peptide, anti-HA-HRP, OD450.
In assay [5] the target is T3, BSA-conjugated human CADM1 peptide. Nature of the assay: ELISA, scFv titrated on coated BSA-conjugated human CADM1 peptide, anti-HA-HRP, OD450.
Assay [6] concerns the target T4, comparison structure: the same structure without the CADM1 peptide (Myc tag, hinge, transmembrane domain, …).
T4 construct: also called 비교군 구조; CADM1 펩타이드를 포함하지 않는 세포
Nature of the assay: flow cytometry, 1 ug scFv on 5x10^5 cells with the structure without the CADM1 peptide, PE anti-HA.

Like-named read-outs stand apart in the source and are kept apart here. Where no end group is shown, it is not given here.

B1: 4C8 (scFv, V domains shown)
VH: AVTLDESGGGLQTPGRALSLVCKASGFSFSSYSMYWVRQAPGKGLEYVAEITSSGRYTYYGSAVKGRATISRDNGQSTVRLQLNNFRAEDTATYFCAKGSGTGYSDSGAGGEIDAWGHGTEVIVSS
VL: LTQPSSVSANPGETVKITCSGGSGSYYGWYQQKSPGSAPVTVIYQNKQRPSNIPSRFSGSKSGSTGTLTITGVQAEDEAVYFCGNYESSAGIFGAGTTLTVL
notes: Tested as purified scFv with His tag and HA tag; chicken immune library
The term Kd denotes the constant that tells how readily two partners part at equilibrium. A high value points to lower affinity. For the molecule B1, in assay [1], the “결합력 (%)” value is 2.3%. In assay [2], this molecule showed a Bmax of 2.06 and an equilibrium dissociation constant (Kd) of 476 nM. Also, in assay [3], the Bmax is 4.47 and the Kd was 66.5 nM.

B2: 5RA5 (scFv, V domains shown)
VH: EVQLLESGGGLVQPGGSLRLSCAASGFTFSNYAMSWVRQAPGKGLEWVSWIYHGGGDTYYADSVKGRFTISRDNSKNTLYLQMNSLRAEDTAVYYCARAAVYCKRTNCYSYDAMDVWGQGTLVTVSS
VL: QSVLTQPPSASGTPGQRVTISCSGSSSNIGNNSVTWYQQLPGTAPKLLIYSNNNRPSGVPDRFSGSKSGTSASLAISGLRSEDEADYYCGAWDDSLNAYVFGGGTKLTAL
notes: Tested as purified scFv (one chain) with His tag and HA tag, from pComb3X in E. coli; human synthetic library
Take B2: in assay [4], the Bmax came to 4.39 and binding was put at a Kd of 39.5 nM. For the same molecule, in assay [5], the Bmax came out at 4.29 and the affinity, expressed as Kd, was 10.4 nM.

B3: 5RB6 (scFv, V domains shown)
VH: EVQLLESGGGLVQPGGSLRLSCAASGFTFSDYAMSWVRQAPGKGLEWVSWIYYDSGSKYYADSVKGRFTISRDNSKNTLYLQMDSLRAEDTAVYYCAKHGRNTKNWPWYSANGMDVWGQGTLVTVSS
VL: QSVLTQPPSASGTPGQRVTISCTGSSSNIGSNSVSWYQQLPGTAPKLLIYSDSKRPSGVPDRFSGSKSGTSASLAISGLRSEDEADYYCGAWDSSLSAYVFGGGTKLTVL
notes: Tested as purified scFv with His tag and HA tag; human synthetic library; also called 5RB6(H); 5RB6 # Human specific
Turning to B3, in assay [5], the Bmax was 4.25 and binding was characterised by a dissociation constant (Kd) of 11.9 nM.

B4: 5RA7 (scFv, V domains shown)
VH: EVQLLESGGGLVQTGGSLRLSCAASGFTFSDYAMSWVRQAPGRGLEWVSAIYPGNSSIYYADSVKGRFTISRDNSKNTLYLQMNSLRAEDTAVYYCARVPVQCMLTRCYSYDAMDVWGQGTLVTVSS
VL: QSVLTQPPSASGTPGQRVTISCTGSSSNIGNNSVTWYQQLPGTAPKLLIYADSHRPSGVPDRFSGSKSGTSASLAISGLRSEDEADYYCGAWDSSLNAYVFGGGTKLTVL
notes: Tested as purified scFv with His tag and HA tag; human synthetic library
As for B4, in assay [4], the Bmax was found to be 4.54 and binding was characterised by a dissociation constant (Kd) of 114 nM. In assay [5], this molecule gave a Bmax of 4.42 and a Kd of 43.7 nM.

B5: 5RA8 (scFv, V domains shown)
VH: EVQLLESGGGLVQPGGSLRLSCAASGFTFSSYGMSWVRQAPGKGLEWVSGISYSGGSTYYADSVKGRFTISRDNSKNTLYLQMNSLRAEDTAVYYCARPISRLGAYMWSSSYAMDVWGQGTLVTVSS
VL: QSVLTQPPSASGTPGQRVTISCSGSSSNIGSNYVTWYQQLPGTAPKLLIYANSNRPSGVPDRFSGSKSGTSASLAISGLRSEDEADYYCGSWDASLNGYVFGGGTKLTVL
notes: as for B4
In assay [4], B5 registered a Bmax of 4.11 and an equilibrium dissociation constant (Kd) of 2 nM. Moreover, in assay [5], the Bmax was 4.12 and binding was characterised by a dissociation constant (Kd) of 1.9 nM.

B6: 5RH12 (scFv, V domains shown)
VH: EVQLLESGGGLVQPGGSLRLSCAASGFTFSNYAMSWVRQAPGKGLEWVSWIYHGGGDTYYADSVKGRFTISRDNSKNTLYLQMSSLRAEDTAVYYCARARVHCQQRRCSSYDAMDVWGQGTLVTVSS
VL: QSVLTQPPSASGTPGQRVTISCSGSSSNIGSNSVSWYQQLPGTAPKLLIYADSHRPSGVPDRFSGSKSGTSASLAISGLRSEDEADYYCGAWDDSLSAYVFGGGTKLTVL
notes: as for B4
On to B6, for which, in assay [4], the Bmax worked out at 6.13 and the Kd was found to be 666 nM. Further, in assay [5], the Bmax worked out at 5.07 and the affinity, expressed as Kd, was 271 nM.

B7: 5RG9 (scFv, V domains shown)
VH: EVQLLESGGGLVQPGGSLRLSCAASGFTFSSYGMSWVRQAPGKGLEWVSWISYSGGNTYYADSVKGRFTISRDNSKNTLYLQMNSLRAEDTAVYYCARPISHFGAYMWSSSYAMDVWGQGTLVTVSS
VL: QSVLTQPPSASGTPGQRVTISCSGSSSNIGSNYVTWYQQLPGTAPKLLIYANSNRPSGVPDRFSGSKSGTSASLAISGLRSEDGADYYCGAWDASLNGYVFGGGTKLTVL
notes: as for B4
On to B7, for which, in assay [4], the Bmax stood at 3.64 and the Kd amounted to 6.97 nM. Also, in assay [5], the Bmax is 3.52 and the Kd turned out to be 8.05 nM.

B8: 4A2 (scFv, V domains shown)
VH: AVTLDESGGGLQTPGRALSLACKGSGFTFSSYAMNWVRQAPGKGLEFVAQITSSGRYTYYGTAVKGRATISRDNGQSTVRLQLNNLRAEDSGTYYCAKDAAAGYYDGATAGDIDAWGHGTEVIVSS
VL: LTQPSSVSANPGETVKITCSGGYNRYGWYQQKSPGSAPVTVIYSNNQRPSNIPSRFSGSKSGSTATLTITGVQAEDEAVYYCGSYDSSDGYAGIFGAGTTLTVL
notes: as for B1
Regarding B8, the “결합력 (%)” value in assay [1] stood at 18.5%; in assay [6], 0.7%. Besides, the Bmax in assay [2] amounted to 4.49; in assay [3], 4.14. Besides, the Kd in assay [2] came to 79.2 nM; in assay [3], 4.19 nM.

B9: 3C5 (scFv, V domains shown)
VH: AVTLDESGGGLQTPGRALSLVCKGSGFTFSSVNMFWVRQAPGKGLEYVAGIRKDGGGPLYGAAVKGRATISRDNGQSTVRLQLNNLRAEDTGTYYCAKAAGSCWAGCTGFIDAWGHGTEVIVSS
VL: LTQPSSVSANPGETVKITCSGGYNYYGWYQQKAPGSAPVTLIYANTDRPSDIPSRFSGSKFGSTATLTITGVQAEDEAVYFCGSRDSSYVGVFGAGTTLTVL
notes: as for B1
With B9, in assay [1], the “결합력 (%)” value was found to be 1.1%. The values for the Bmax in assay [2] and in assay [3] were 4.05 and 4.41, respectively. The results for the Kd in assay [2] and in assay [3] were 41.7 nM and 49.7 nM, respectively.

B10: 5A5 (scFv, V domains shown)
VH: AVTLDESGGGLQTPGGGLSLVCKGSGFTFSSVNMFWVRQAPGKGLEYVAGIRKDGGGPLYGAAVKGRATISRDNGQSTVRLQLNNLRAEDTGTYYCAKAAGSCWAGCTGFIDAWGHGTEVIVSS
VL: LTQPSSVSANLGGTVKITCSGSSGYGYGWYQQKSPGSAPVTVIYYNNKRPSDIPSRFSGSKSGSTATLTITGVQVEDEAVYYCGSADSSAGYVGIFGAGTTLTVL
notes: as for B1
Regarding B10, the values for the Bmax in assay [2] and in assay [3] were 4.54 and 4.52, respectively. In addition, the Kd in assay [2] is 136 nM; in assay [3], 123 nM.

B11: 3G10 (scFv, V domains shown)
VH: AVTLDESGGGLQTPGGGLSLVCKGSGFTFSSVNMFWVRQAPGKGLEYVAGIRKDGGGPLYGAAVKGRATISRDNGQSTVRLQLNNLRAEDTGTYYCAKAAGSCWAGCTGFIDAWGHGTEVIVSS
VL: LTQPSSVSANPGETVKITCSGSTGSYGWFQQKSPGSALVTLIYNGNNRPSDIPSRFSGSKSGSTGTLTITGVQADDEAVYFCGGRESRSNPGIFGAGTTLTVL
notes: as for B1
In assay [2], B11 displayed a Bmax of 1.62 and a Kd of 0.926 nM. Further, in assay [3], the Bmax was determined as 1.91 and binding was characterised by a dissociation constant (Kd) of 2.77 nM.

B12: 6RC7 (scFv, V domains shown)
VH: EVQLLESGGGLVQPGGSLRLSCAASGFTFSNYAMSWVRQAPGKGLEWVSGIYPNSGSNTYYADSVKGRFTISRDNSKNTLYLQMNSLRAEDTAVYYCARAIGPCLRYPCYSADAMDVWGQGTLVTVSS
VL: QSVLTQPPSASGTPGQRVTISCTGSSSNIGSNYVNWYQQLPGTAPKLLIYANSNPPSGVPDRFSGSKSGTSASLGISGLRSEDEADYYCGAWDDNLNAYVFVGGTKLTVL
notes: as for B4
With B12, in assay [4], the Bmax is 4.19 and binding was characterised by a dissociation constant (Kd) of 4.8 nM. In assay [5], the Bmax was found to be 4.19 and the affinity, expressed as Kd, was 4.23 nM.

B13: 4H7 (scFv, V domains shown)
VH: AVTLDESGGGLQTPGGTLSLVCKASGFDFSSYEMAWVRQAPGKGLEYVAGIDNTGSATNYGAAVKGRATISRDNGQSTVRLQLNNLRAEDTATYFCAKDAYGYSGSDSWYAANPAYIDAWGHGTEVIVSS
VL: LTQPSSVSANPGETVKITCSGSSGSYGWYQQKSPGSAPVTVIYDNTNRPSDIPSRFSGSKSGSTGTLTITGVQAEDEAVYFCGSRDSSYVGIFGAGTTLTVL
notes: as for B1
With B13, in assay [1], the “결합력 (%)” value turned out to be 3.3%. For the same molecule, in assay [2], the Bmax is 5.57 and binding was put at a Kd of 394 nM. In assay [3], this molecule showed a Bmax of 4.48 and a Kd of 52.7 nM.

B14: 5A2 (scFv, V domains shown)
VH: AVTLDESGGGLQTPGGTLSLVCKGSGFDFSSVNMFWVRQAPGKGLEYVAGIRKDGGGPLYGAAVKGRATISRDNGQSTVRLQLNNLRAEDTGTYFCAKAAGSCWAGCTGFIDAWGHGTEVIVSS
VL: LTQPSSVSANPGETVKITCSGGSSYYGWYQQKSPGSAPVTVIYYNDKRPSDIPSRFSGSKSGSTATLTITGVQAEDEAVYYCGSADSSYVGIFGAGTTLTVL
notes: as for B1
B14: the “결합력 (%)” value in assay [1] is 1.2%. In addition, in assay [2], the Bmax came out at 4.32 and binding was put at a Kd of 59.2 nM. In addition, in assay [3], the Bmax is 4.38 and the Kd worked out at 47.9 nM.

Source of the values: KR20220167207A (dated 2022).
